Measured values as given in patent US20110091994A1, “Methods for Screening Compounds for Treating and/or Preventing an Hepatitis C Virus Infection” (priority 2008, published 2011).

B1: ZMYM2 (protein, UniProt Q9UBW7 1-1377, looked up)
Zinc finger MYM-type protein 2: MDTSSVGGLELTDQTPVLLGSTAMATSLTNVGNSFSGPANPLVSRSNKFQNSSVEDDDDVVFIEPVQPPPPSVPVVADQRTITFTSSKNEELQGNDSKITPSSKELASQKGSVSETIVIDDEEDMETNQGQEKNSSNFIERRPPETKNRTNDVDFSTSSFSRSKVNAGMGNSGITTEPDSEIQIANVTTLETGVSSVNDGQLENTDGRDMNLMITHVTSLQNTNLGDVSNGLQSSNFGVNIQTYTPSLTSQTKTGVGPFNPGRMNVAGDVFQNGESATHHNPDSWISQSASFPRNQKQPGVDSLSPVASLPKQIFQPSVQQQPTKPVKVTCANCKKPLQKGQTAYQRKGSAHLFCSTTCLSSFSHKPAPKKLCVMCKKDITTMKGTIVAQVDSSESFQEFCSTSCLSLYEDKQNPTKGALNKSRCTICGKLTEIRHEVSFKNMTHKLCSDHCFNRYRMANGLIMNCCEQCGEYLPSKGAGNNVLVIDGQQKRFCCQSCVSEYKQVGSHPSFLKEVRDHMQDSFLMQPEKYGKLTTCTGCRTQCRFFDMTQCIGPNGYMEPYCSTACMNSHKTKYAKSQSLGIICHFCKRNSLPQYQATMPDGKLYNFCNSSCVAKFQALSMQSSPNGQFVAPSDIQLKCNYCKNSFCSKPEILEWENKVHQFCSKTCSDDYKKLHCIVTYCEYCQEEKTLHETVNFSGVKRPFCSEGCKLLYKQDFARRLGLRCVTCNYCSQLCKKGATKELDGVVRDFCSEDCCKKFQDWYYKAARCDCCKSQGTLKERVQWRGEMKHFCDQHCLLRFYCQQNEPNMTTQKGPENLHYDQGCQTSRTKMTGSAPPPSPTPNKEMKNKAVLCKPLTMTKATYCKPHMQTKSCQTDDTWRTEYVPVPIPVPVYIPVPMHMYSQNIPVPTTVPVPVPVPVFLPAPLDSSEKIPAAIEELKSKVSSDALDTELLTMTDMMSEDEGKTETTNINSVIIETDIIGSDLLKNSDPETQSSMPDVPYEPDLDIEIDFPRAAEELDMENEFLLPPVFGEEYEEQPRPRSKKKGAKRKAVSGYQSHDDSSDNSECSFPFKYTYGVNAWKHWVKTRQLDEDLLVLDELKSSKSVKLKEDLLSHTTAELNYGLAHFVNEIRRPNGENYAPDSIYYLCLGIQEYLCGSNRKDNIFIDPGYQTFEQELNKILRSWQPSILPDGSIFSRVEEDYLWRIKQLGSHSPVALLNTLFYFNTKYFGLKTVEQHLRLSFGTVFRHWKKNPLTMENKACLRYQVSSLCGTDNEDKITTGKRKHEDDEPVFEQIENTANPSRCPVKMFECYLSKSPQNLNQRMDVFYLQPECSSSTDSPVWYTSTSLDRNTLENMLVRVLLVKDIYDKDNYELDEDTD
B2: TRAF3IP3 (protein, UniProt Q9Y228 1-551, looked up)
TRAF3-interacting …: MISPDPRPSPGLARWAESYEAKCERRQEIRESRRCRPNVTTCRQVGKTLRIQQREQLQRARLQQFFRRRNLELEEKGKAQHPQAREQGPSRRPGQVTVLKEPLSCARRISSPREQVTGTSSEVFPAQHPPPSGICRDLSDHLSSQAGGLPPQDTPIKKPPKHHRGTQTKAEGPTIKNDASQQTNYGVAVLDKEIIQLSDYLKEALQRELVLKQKMVILQDLLSTLIQASDSSWKGQLNEDKLKGKLRSLENQLYTCTQKYSPWGMKKVLLEMEDQKNSYEQKAKESLQKVLEEKMNAEQQLQSTQRSLALAEQKCEEWRSQYEALKEDWRTLGTQHRELESQLHVLQSKLQGADSRDLQMNQALRFLENEHQQLQAKIECLQGDRDLCSLDTQDLQDQLKRSEAEKLTLVTRVQQLQGLLQNQSLQLQEQEKLLTKKDQALPVWSPKSFPNEVEPEGTGKEKDWDLRDQLQKKTLQLQAKEKECRELHSELDNLSDEYLSCLRKLQHCREELNQSQQLPPRRQCGRWLPVLMVVIAAALAVFLANKDNLMI
B3: NFE2 (protein, UniProt Q16621 1-373, looked up)
Transcription factor NF-E2 45 …: MSPCPPQQSRNRVIQLSTSELGEMELTWQEIMSITELQGLNAPSEPSFEPQAPAPYLGPPPPTTYCPCSIHPDSGFPLPPPPYELPASTSHVPDPPYSYGNMAIPVSKPLSLSGLLSEPLQDPLALLDIGLPAGPPKPQEDPESDSGLSLNYSDAESLELEGTEAGRRRSEYVEMYPVEYPYSLMPNSLAHSNYTLPAAETPLALEPSSGPVRAKPTARGEAGSRDERRALAMKIPFPTDKIVNLPVDDFNELLARYPLTESQLALVRDIRRRGKNKVAAQNCRKRKLETIVQLERELERLTNERERLLRARGEADRTLEVMRQQLTELYRDIFQHLRDESGNSYSPEEYALQQAADGTIFLVPRGTKMEATD
B4: IGLL1 (protein, UniProt P15814 38-213, looked up)
Immunoglobulin lambda-like …: LLRPTAASQSRALGPGAPGGSSRSSLRSRWGRFLLQRGSWTGPRCWPRGFQSKHNSVTHVFGSGTQLTVLSQPKATPSVTLFPPSSEELQANKATLVCLMNDFYPGILTVTWKADGTPITQGVEMTTPSKQSNNKYAASSYLSLTPEQWRSRRSYSCQVMHEGSTVEKTVAPAECS
B5: ACLY (protein, UniProt P53396 1-1101, looked up)
ATP-citrate synthase: MSAKAISEQTGKELLYKFICTTSAIQNRFKYARVTPDTDWARLLQDHPWLLSQNLVVKPDQLIKRRGKLGLVGVNLTLDGVKSWLKPRLGQEATVGKATGFLKNFLIEPFVPHSQAEEFYVCIYATREGDYVLFHHEGGVDVGDVDAKAQKLLVGVDEKLNPEDIKKHLLVHAPEDKKEILASFISGLFNFYEDLYFTYLEINPLVVTKDGVYVLDLAAKVDATADYICKVKWGDIEFPPPFGREAYPEEAYIADLDAKSGASLKLTLLNPKGRIWTMVAGGGASVVYSDTICDLGGVNELANYGEYSGAPSEQQTYDYAKTILSLMTREKHPDGKILIIGGSIANFTNVAATFKGIVRAIRDYQGPLKEHEVTIFVRRGGPNYQEGLRVMGEVGKTTGIPIHVFGTETHMTAIVGMALGHRPIPNQPPTAAHTANFLLNASGSTSTPAPSRTASFSESRADEVAPAKKAKPAMPQDSVPSPRSLQGKSTTLFSRHTKAIVWGMQTRAVQGMLDFDYVCSRDEPSVAAMVYPFTGDHKQKFYWGHKEILIPVFKNMADAMRKHPEVDVLINFASLRSAYDSTMETMNYAQIRTIAIIAEGIPEALTRKLIKKADQKGVTIIGPATVGGIKPGCFKIGNTGGMLDNILASKLYRPGSVAYVSRSGGMSNELNNIISRTTDGVYEGVAIGGDRYPGSTFMDHVLRYQDTPGVKMIVVLGEIGGTEEYKICRGIKEGRLTKPIVCWCIGTCATMFSSEVQFGHAGACANQASETAVAKNQALKEAGVFVPRSFDELGEIIQSVYEDLVANGVIVPAQEVPPPTVPMDYSWARELGLIRKPASFMTSICDERGQELIYAGMPITEVFKEEMGIGGVLGLLWFQKRLPKYSCQFIEMCLMVTADHGPAVSGAHNTIICARAGKDLVSSLTSGLLTIGDRFGGALDAAAKMFSKAFDSGIIPMEFVNKMKKEGKLIMGIGHRVKSINNPDMRVQILKDYVRQHFPATPLLDYALEVEKITTSKKPNLILNVDGLIGVAFVDMLRNCGSFTREEADEYIDIGALNGIFVLGRSMGFIGHYLDQKRLKQGLYRHPWDDISYVLPEHMSM
B6: ARFIP1 (protein, UniProt P53367 2-373, looked up)
Arfaptin-1: AQESPKNSAAEIPVTSNGEVDDSREHSFNRDLKHSLPSGLGLSETQITSHGFDNTKEGVIEAGAFQGSPAPPLPSVMSPSRVAASRLAQQGSDLIVPAGGQRTQTKSGPVILADEIKNPAMEKLELVRKWSLNTYKCTRQIISEKLGRGSRTVDLELEAQIDILRDNKKKYENILKLAQTLSTQLFQMVHTQRQLGDAFADLSLKSLELHEEFGYNADTQKLLAKNGETLLGAINFFIASVNTLVNKTIEDTLMTVKQYESARIEYDAYRTDLEELNLGPRDANTLPKIEQSQHLFQAHKEKYDKMRNDVSVKLKFLEENKVKVLHNQLVLFHNAIAAYFAGNQKQLEQTLKQFHIKLKTPGVDAPSWLEEQ
B7: CCDC100 (protein, UniProt Q8N960 1-986, looked up)
Centrosomal protein of 120 kDa: MVSKSDQLLIVVSILEGRHFPKRPKHMLVVEAKFDGEQLATDPVDHTDQPEFATELAWEIDRKALHQHRLQRTPIKLQCFALDPVTSAKETIGYIVLDLRTAQETKQAPKWYQLLSNKYTKFKSEIQISIALETDTKPPVDSFKAKGAPPRDGKVPAILAGLDPRDIVAVLNEEGGYHQIGPAEYCTDSFIMSVTIAFATQLEQLIPCTMKLPERQPEFFFYYSLLGNDVTNEPFNDLINPNFEPERASVRIRSSVEILRVYLALQSKLQIHLCCGDQSLGSTEIPLTGLLKKGSTEINQHPVTVEGAFTLDPPNRAKQKLAPIPVELAPTVGVSVALQREGIDSQSLIELKTQNEHEPEHSKKKVLTPIKEKTLTGPKSPTVSPVPSHNQSPPTKDDATESEVESLQYDKDTKPNPKASSSVPASLAQLVTTSNASEVASGQKIAVPATSHHFCFSIDLRSIHALEIGFPINCILRYSYPFFGSAAPIMTNPPVEVRKNMEVFLPQSYCAFDFATMPHQLQDTFLRIPLLVELWHKDKMSKDLLLGIARIQLSNILSSEKTRFLGSNGEQCWRQTYSESVPVIAAQGSNNRIADLSYTVTLEDYGLVKMREIFISDSSQGVSAVQQKPSSLPPAPCPSEIQTEPRETLEYKAALELEMWKEMQEDIFENQLKQKELAHMQALAEEWKKRDRERESLVKKKVAEYTILEGKLQKTLIDLEKREQQLASVESELQREKKELQSERQRNLQELQDSIRRAKEDCIHQVELERLKIKQLEEDKHRLQQQLNDAENKYKILEKEFQQFKDQQNNKPEIRLQSEINLLTLEKVELERKLESATKSKLHYKQQWGRALKELARLKQREQESQMARLKKQQEELEQMRLRYLAAEEKDTVKTERQELLDIRNELNRLRQQEQKQYQDSTEIASGKKDGPHGSVLEEGLDDYLTRLIEERDTLMRTGVYNHEDRIISELDRQIREILAKSNASN
B8: LIMS2 (protein, UniProt Q7Z4I7 1-341, looked up)
LIM and senescent cell …: MTGSNMSDALANAVCQRCQARFSPAERIVNSNGELYHEHCFVCAQCFRPFPEGLFYEFEGRKYCEHDFQMLFAPCCGSCGEFIIGRVIKAMNNNWHPGCFRCELCDVELADLGFVKNAGRHLCRPCHNREKAKGLGKYICQRCHLVIDEQPLMFRSDAYHPDHFNCTHCGKELTAEARELKGELYCLPCHDKMGVPICGACRRPIEGRVVNALGKQWHVEHFVCAKCEKPFLGHRHYEKKGLAYCETHYNQLFGDVCYNCSHVIEGDVVSALNKAWCVSCFSCSTCNSKLTLKNKFVEFDMKPVCKRCYEKFPLELKKRLKKLSELTSRKAQPKATDLNSA

What follows are molecules tested against T1, HCV ORFs (Gal4-DB fusions) (Hepatitis C virus genotype 1b, UniProt Q9WMX2). Conditions: HCV protein NS3 as bait; human protein as prey.
T1 construct: expressed in transfected cells; host or cells: Saccharomyces cerevisiae MAV203 (IMAP1) / AH109 (IMAP2)
Type: binding, HCV genotype 1b, isolate con1
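Also: yeast two-hybrid screens using HCV genotype 1b proteins fused to Gal4-DB as baits against prey cDNA libraries from human spleen and foetal brain, IMAP1 via transformation and IMAP2 via mating.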

Molecule | IMAP Y2H IMAP2 (number of IST)
B1 | 2

Same assay, conditions: HCV protein NS4A as bait; human protein as prey

Molecule | IMAP Y2H IMAP2 (number of IST)
B2 | 1

Same assay, conditions: HCV protein NS5A as bait; human protein as prey

Molecule | IMAP Y2H IMAP2 (number of IST)
B3 | 1
B4 | 1
B5 | 1
B6 | 9
B7 | 1
B8 | 1

The molecules below were run on HCV ORFs (Gal4-DB fusions). Conditions: human protein listed by gene symbol; the value names the HCV protein it interacts with.
Type: binding, HCV genotype 1b, isolate con1

Molecule | Interaction with viral protein
B2 | NS4A
B3 | NS5A
B4 | NS5A
B5 | NS5A
B6 | NS5A
B1 | NS3
B7 | NS5A
B8 | NS5A
